Measured values from article PMC4999191.

Target: calmodulin (CaM agarose beads) (UniProt P62157)
Assay: pull-down with CaM-agarose beads, immunoblot (band quantification printed under the lanes)
Conditions: parent: 100

Row | percent of parent | Substance
1 | 29 | PC1-p30, soluble polycystin-1 cytoplasmic tail L4137P
2 | 116 | PC1-p30, soluble polycystin-1 cytoplasmic tail R4150C
